Reference: doi:10.1101/2023.08.13.546412 (bioRxiv, 2023)

Molecular target: T1, GST-AtSK21 (Arabidopsis thaliana, UniProt Q39011 1-380)
T1 sequence (looked up): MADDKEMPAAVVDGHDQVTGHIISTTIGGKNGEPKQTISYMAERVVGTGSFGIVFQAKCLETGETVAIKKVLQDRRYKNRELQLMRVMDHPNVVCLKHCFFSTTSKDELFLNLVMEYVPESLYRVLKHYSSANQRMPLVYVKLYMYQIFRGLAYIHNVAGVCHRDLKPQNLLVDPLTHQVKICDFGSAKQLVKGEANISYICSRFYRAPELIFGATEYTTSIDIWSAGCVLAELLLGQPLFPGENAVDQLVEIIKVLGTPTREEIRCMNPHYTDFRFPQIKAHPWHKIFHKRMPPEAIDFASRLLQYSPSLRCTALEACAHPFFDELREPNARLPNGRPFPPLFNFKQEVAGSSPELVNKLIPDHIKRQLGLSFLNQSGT
Test: pull-down

binding result: binds
B1: MBP-WOX5 (natural protein, Arabidopsis thaliana, UniProt Q8H1D2 1-182, looked up)
chain: MSFSVKGRSLRGNNNGGTGTKCGRWNPTVEQLKILTDLFRAGLRTPTTDQIQKISTELSFYGKIESKNVFYWFQNHKARERQKRRKISIDFDHHHHQPSTRDVFEISEEDCQEEEKVIETLQLFPVNSFEDSNSKVDKMRARGNNQYREYIRETTTTSFSPYSSCGAEMEHPPPLDLRLSFL
